# Test results reported in patent publication US20190201491A1 (ELANCO US, published 2019).
# B1: wild-type (WT) bFGF-21 (ligand)
# chain: HPIPDSSPLLQFGGQVRQRYLYTDDAQETEAHLEIRADGTVVGAARQSPESLLELKALKPGVIQILGVKTSRFLCQGPDGKLYGSLHFDPKACSFRELLLEDGYNVYQSETLGLPLRLPPQRSSNRDPAPRGPARFLPLPGLPAAPPDPPGILAPEPPDVGSSDPLSMVGPSYGRSPSYTS
# Biological target: beta Klotho and FGFR1c (Fibroblast Growth Factor Receptor isoform 1c) expressed on the cell surface of a …
# Experiment: cell-based or functional assay
binder,measurement,value
B1,"EC50 (ng/mL), STEADY-GLO Elk1 luciferase reporter assay",38 ng/mL
same,"Fold loss potency relative to WT bFGF21, Elk1 luciferase reporter assay",1 fold
